From patent publication US20140274782A1, “AFFINITY REAGENTS AND METHODS FOR DETECTION, PURIFICATION, AND PROTEOMIC ANALYSIS OF METHYLATED PROTEINS” (The Board of Trustees of the Leland Stanford Junior …, priority 2013, published 2014)

T1: G9a and GLP (Homo sapiens, UniProt Q96KQ7+Q9H9B1)
T1 sequence (Q96KQ7 2-1210 limits assumed): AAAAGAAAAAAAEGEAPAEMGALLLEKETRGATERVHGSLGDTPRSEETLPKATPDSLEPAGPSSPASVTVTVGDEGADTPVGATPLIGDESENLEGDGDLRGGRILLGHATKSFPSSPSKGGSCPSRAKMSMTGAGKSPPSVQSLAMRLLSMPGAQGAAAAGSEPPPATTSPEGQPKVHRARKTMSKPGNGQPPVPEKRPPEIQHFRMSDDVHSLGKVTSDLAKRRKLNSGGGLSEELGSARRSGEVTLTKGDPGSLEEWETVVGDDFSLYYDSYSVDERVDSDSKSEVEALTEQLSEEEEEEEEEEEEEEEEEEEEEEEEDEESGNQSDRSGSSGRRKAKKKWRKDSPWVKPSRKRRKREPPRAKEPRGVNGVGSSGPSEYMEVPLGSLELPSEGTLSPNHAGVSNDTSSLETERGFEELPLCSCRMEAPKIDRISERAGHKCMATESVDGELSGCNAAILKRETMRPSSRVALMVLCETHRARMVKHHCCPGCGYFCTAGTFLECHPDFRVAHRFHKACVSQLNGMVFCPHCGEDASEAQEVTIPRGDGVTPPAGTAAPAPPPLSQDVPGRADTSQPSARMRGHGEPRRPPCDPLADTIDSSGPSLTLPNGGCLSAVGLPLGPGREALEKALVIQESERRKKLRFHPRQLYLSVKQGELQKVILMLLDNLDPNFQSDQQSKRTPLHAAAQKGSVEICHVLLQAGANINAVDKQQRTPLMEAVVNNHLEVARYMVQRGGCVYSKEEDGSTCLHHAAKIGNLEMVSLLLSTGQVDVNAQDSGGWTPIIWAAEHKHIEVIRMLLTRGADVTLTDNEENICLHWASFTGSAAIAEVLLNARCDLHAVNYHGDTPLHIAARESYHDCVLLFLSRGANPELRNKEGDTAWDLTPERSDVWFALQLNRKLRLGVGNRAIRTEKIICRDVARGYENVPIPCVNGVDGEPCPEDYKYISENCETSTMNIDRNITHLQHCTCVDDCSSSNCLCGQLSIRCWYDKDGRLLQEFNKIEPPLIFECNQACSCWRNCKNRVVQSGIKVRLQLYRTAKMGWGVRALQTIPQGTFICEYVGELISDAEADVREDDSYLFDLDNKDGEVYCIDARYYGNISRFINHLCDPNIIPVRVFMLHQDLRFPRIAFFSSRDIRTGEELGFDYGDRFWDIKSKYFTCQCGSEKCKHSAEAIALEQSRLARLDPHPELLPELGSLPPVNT
T1 sequence (Q9H9B1 2-1298 limits assumed): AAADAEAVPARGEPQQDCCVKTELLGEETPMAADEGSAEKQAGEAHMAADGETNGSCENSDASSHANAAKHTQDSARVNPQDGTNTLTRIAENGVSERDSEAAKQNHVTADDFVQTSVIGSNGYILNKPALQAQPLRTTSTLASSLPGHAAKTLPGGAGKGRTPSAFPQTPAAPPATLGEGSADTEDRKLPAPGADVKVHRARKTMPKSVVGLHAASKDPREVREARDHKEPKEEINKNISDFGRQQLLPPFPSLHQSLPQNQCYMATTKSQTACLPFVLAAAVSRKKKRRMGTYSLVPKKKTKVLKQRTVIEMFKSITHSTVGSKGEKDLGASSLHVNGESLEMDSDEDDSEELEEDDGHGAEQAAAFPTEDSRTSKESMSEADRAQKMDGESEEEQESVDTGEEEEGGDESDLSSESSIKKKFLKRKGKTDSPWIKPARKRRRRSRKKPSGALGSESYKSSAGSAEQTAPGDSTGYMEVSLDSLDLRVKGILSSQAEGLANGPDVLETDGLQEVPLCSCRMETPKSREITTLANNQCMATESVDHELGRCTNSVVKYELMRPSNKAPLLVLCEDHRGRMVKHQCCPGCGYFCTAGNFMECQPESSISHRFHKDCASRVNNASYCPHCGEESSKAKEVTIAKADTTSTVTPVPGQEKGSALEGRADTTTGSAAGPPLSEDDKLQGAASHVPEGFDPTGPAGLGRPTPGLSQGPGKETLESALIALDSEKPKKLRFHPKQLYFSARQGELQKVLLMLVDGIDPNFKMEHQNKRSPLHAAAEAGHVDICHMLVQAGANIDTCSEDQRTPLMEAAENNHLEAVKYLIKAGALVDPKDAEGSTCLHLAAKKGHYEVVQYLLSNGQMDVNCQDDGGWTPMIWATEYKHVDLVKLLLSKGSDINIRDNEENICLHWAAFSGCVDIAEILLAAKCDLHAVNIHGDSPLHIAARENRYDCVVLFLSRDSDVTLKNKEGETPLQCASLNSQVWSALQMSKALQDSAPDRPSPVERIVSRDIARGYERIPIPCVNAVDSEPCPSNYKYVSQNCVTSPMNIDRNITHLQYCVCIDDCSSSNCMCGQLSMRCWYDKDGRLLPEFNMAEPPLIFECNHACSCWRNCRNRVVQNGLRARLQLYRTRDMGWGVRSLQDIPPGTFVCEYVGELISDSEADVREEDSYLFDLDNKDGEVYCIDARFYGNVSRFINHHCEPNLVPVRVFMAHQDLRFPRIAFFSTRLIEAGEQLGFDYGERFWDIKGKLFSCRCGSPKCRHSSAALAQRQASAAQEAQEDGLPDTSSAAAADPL


Target: T1, G9a and GLP
Assay: Triple SILAC pull-down after UNC0638 treatment of 293T cells, DMSO/UNC0638 ratio of protein captured by 3×MBT;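 also: mass spectrometry (Q-Exactive) SILAC quantitation, DMSO/UNC0638 ratio computed after subtracting 3×MBTD355N mutant pull-down background, only proteins with at least twofold 3×MBT over mutant signal considered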
Format: cell-based
Design: cells were treated for 24 hours with UNC0638 at 2.5 μM or DMSO vehicle control; endogenous in cells; host or cells: HEK 293T
Conditions: for Relative to UNC0638 UNC Heavy / Relative to UNC0638 UNC Light: SILAC ratio DMSO/UNC0638 of protein pulled down with 3xMBT; for Relative to UNC0638 UNC Heavy: UNC0638 in heavy SILAC media; for Relative to UNC0638 UNC Light: UNC0638 in light SILAC media; for Relative to UNC0638 Average: average of UNC Light and UNC Heavy experiments

| Molecule | Relative to UNC0638 UNC Heavy [log base 2] | Relative to UNC0638 UNC Light [log base 2] | Relative to UNC0638 Average [log base 2] |
| --- | --- | --- | --- |
| CMAS: protein with methylated lysine identified in 3xMBT pull-down (protein, UniProt Q8NFW8 1-434, looked up) N-acylneuraminate …: MDSVEKGAATSVSNPRGRPSRGRPPKLQRNSRGGQGRGVEKPPHLAALILARGGSKGIPLKNIKHLAGVPLIGWVLRAALDSGAFQSVWVSTDHDEIENVAKQFGAQVHRRSSEVSKDSSTSLDAIIEFLNYHNEVDIVGNIQATSPCLHPTDLQKVAEMIREEGYDSVFSVVRRHQFRWSEIQKGVREVTEPLNLNPAKRPRRQDWDGELYENGSFYFAKRHLIEMGYLQGGKMAYYEMRAEHSVDIDVDIDWPIAEQRVLRYGYFGKEKLKEIKLLVCNIDGCLTNGHIYVSGDQKEIISYDVKDAIGISLLKKSGIEVRLISERACSKQTLSSLKLDCKMEVSVSDKLAVVDEWRKEMGLCWKEVAYLGNEVSDEECLKRVGLSGAPADACSTAQKAVGYICKCNGGRGAIREFAEHICLLMEKVNNSCQK | 0.22 | 0.12 | 0.17 |
| DDX1: protein with methylated lysine identified in 3xMBT pull-down (protein, UniProt Q92499 1-740, looked up) ATP-dependent RNA helicase …: MAAFSEMGVMPEIAQAVEEMDWLLPTDIQAESIPLILGGGDVLMAAETGSGKTGAFSIPVIQIVYETLKDQQEGKKGKTTIKTGASVLNKWQMNPYDRGSAFAIGSDGLCCQSREVKEWHGCRATKGLMKGKHYYEVSCHDQGLCRVGWSTMQASLDLGTDKFGFGFGGTGKKSHNKQFDNYGEEFTMHDTIGCYLDIDKGHVKFSKNGKDLGLAFEIPPHMKNQALFPACVLKNAELKFNFGEEEFKFPPKDGFVALSKAPDGYIVKSQHSGNAQVTQTKFLPNAPKALIVEPSRELAEQTLNNIKQFKKYIDNPKLRELLIIGGVAARDQLSVLENGVDIVVGTPGRLDDLVSTGKLNLSQVRFLVLDEADGLLSQGYSDFINRMHNQIPQVTSDGKRLQVIVCSATLHSFDVKKLSEKIMHFPTWVDLKGEDSVPDTVHHVVVPVNPKTDRLWERLGKSHIRTDDVHAKDNTRPGANSPEMWSEAIKILKGEYAVRAIKEHKMDQAIIFCRTKIDCDNLEQYFIQQGGGPDKKGHQFSCVCLHGDRKPHERKQNLERFKKGDVRFLICTDVAARGIDIHGVPYVINVTLPDEKQNYVHRIGRVGRAERMGLAISLVATEKEKVWYHVCSSRGKGCYNTRLKEDGGCTIWYNEMQLLSEIEEHLNCTISQVEPDIKVPVDEFDGKVTYGQKRAAGGGSYKGHVDILAPTVQELAALEKEAQTSFLHLGYLPNQLFRTF | 0.02 | 0.29 | 0.16 |
| eEF1A1: protein with methylated lysine identified in 3xMBT pull-down (protein, UniProt P68104 2-462, looked up, methylated lysine, protein with methylated lysine identified in 3xMBT pull-down) Elongation factor 1-alpha 1: GKEKTHINIVVIGHVDSGKSTTTGHLIYKCGGIDKRTIEKFEKEAAEMGKGSFKYAWVLDKLKAERERGITIDISLWKFETSKYYVTIIDAPGHRDFIKNMITGTSQADCAVLIVAAGVGEFEAGISKNGQTREHALLAYTLGVKQLIVGVNKMDSTEPPYSQKRYEEIVKEVSTYIKKIGYNPDTVAFVPISGWNGDNMLEPSANMPWFKGWKVTRKDGNASGTTLLEALDCILPPTRPTDKPLRLPLQDVYKIGGIGTVPVGRVETGVLKPGMVVTFAPVNVTTEVKSVEMHHEALSEALPGDNVGFNVKNVSVKDVRRGNVAGDSKNDPPMEAAGFTAQVIILNHPGQISAGYAPVLDCHTAHIACKFAELKEKIDRRSGKKLEDGPKFLKSGDAAIVDMVPGKPMCVESFSDYPPLGRFAVRDMRQTVAVGVIKAVDKKAAGAGKVTKSAQKAQKAK | 0.27 | 0.04 | 0.15 |
| GTF2I: protein with methylated lysine identified in 3xMBT pull-down (protein, UniProt P78347 2-998, looked up, methylated lysine, protein with methylated lysine identified in 3xMBT pull-down) General transcription factor …: AQVAMSTLPVEDEESSESRMVVTFLMSALESMCKELAKSKAEVACIAVYETDVFVVGTERGRAFVNTRKDFQKDFVKYCVEEEEKAAEMHKMKSTTQANRMSVDAVEIETLRKTVEDYFCFCYGKALGKSTVVPVPYEKMLRDQSAVVVQGLPEGVAFKHPENYDLATLKWILENKAGISFIIKRPFLEPKKHVGGRVMVTDADRSILSPGGSCGPIKVKTEPTEDSGISLEMAAVTVKEESEDPDYYQYNIQAGPSETDDVDEKQPLSKPLQGSHHSSEGNEGTEMEVPAEDSTQHVPSETSEDPEVEVTIEDDDYSPPSKRPKANELPQPPVPEPANAGKRKVREFNFEKWNARITDLRKQVEELFERKYAQAIKAKGPVTIPYPLFQSHVEDLYVEGLPEGIPFRRPSTYGIPRLERILLAKERIRFVIKKHELLNSTREDLQLDKPASGVKEEWYARITKLRKMVDQLFCKKFAEALGSTEAKAVPYQKFEAHPNDLYVEGLPENIPFRSPSWYGIPRLEKIIQVGNRIKFVIKRPELLTHSTTEVTQPRTNTPVKEDWNVRITKLRKQVEEIFNLKFAQALGLTEAVKVPYPVFESNPEFLYVEGLPEGIPFRSPTWFGIPRLERIVRGSNKIKFVVKKPELVISYLPPGMASKINTKALQSPKRPRSPGSNSKVPEIEVTVEGPNNNNPQTSAVRTPTQTNGSNVPFKPRGREFSFEAWNAKITDLKQKVENLFNEKCGEALGLKQAVKVPFALFESFPEDFYVEGLPEGVPFRRPSTFGIPRLEKILRNKAKIKFIIKKPEMFETAIKESTSSKSPPRKINSSPNVNTTASGVEDLNIIQVTIPDDDNERLSKVEKARQLREQVNDLFSRKFGEAIGMGFPVKVPYRKITINPGCVVVDGMPPGVSFKAPSYLEISSMRRILDSAEFIKFTVIRPFPGLVINNQLVDQSESEGPVIQESAEPSQLEVPATEEIKETDGSSQIKQEPDPTW | 0.31 | 0.00 | 0.16 |
